According to the supplement of paper PMC10201428:
± gives the standard deviation of the averaged measurements.

Key:
[1] = system: VchCAST RNA-guided transposition machinery (E. coli BL21(DE3) host, lacZ target); assay: relative integration efficiency (T-LR orientation) vs wild-type transposon end (log2 (normalized fold change)); transposon end mutated: left end; higher = more efficient transposition
Experimental: (§1)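 Pooled, barcoded VchCAST (Tn6677) mini-transposon donor libraries; each variable transposon-end sequence sits in a fixed pDonor mini-transposon context (10-bp barcode and cargo not included). Left- or right-end libraries were co-transformed with pEffector (TniQ-Cascade, TnsABC, lacZ crRNA, T7, 0.1 mM IPTG) into E. coli BL21(DE3) and grown 18 h at 37 C. T-LR and T-RL junction amplicons were sequenced; output/input barcode fold change was normalised to the mean of four wild-type barcodes and log2-transformed. Two biological replicates; zero-count/undetected variants carry floor values (-10 / -15), censored here. Barcode uncoupling by PCR recombination adds noise.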

[2] = system: VchCAST RNA-guided transposition machinery (E. coli BL21(DE3) host, lacZ target); assay: relative integration efficiency (T-RL orientation) vs wild-type transposon end (log2 (normalized fold change)); transposon end mutated: left end; higher = more efficient transposition
Experimental: as §1

Sequence | relative integration efficiency (log2) [1] | relative integration efficiency (log2) [2]
AATGTTGTTGAAACAACCATAAAGTGATAACAACGAATCAATTAAAATCATAGGCTTAATCGAAAAACAACCATATCTTGATATCGCACAAAACAACCATAAGTTGATATTTTTGTGAATCGAGTATTTCAGCAAAACTACTGCAGTAAGAA | -0.526 ± 0.33 | -0.51 ± 0.3
AATGTTGTTGAAACAACCATAAAGTGATAACAACGAATCAATTAAAATCATAGGCTTAATCGAAAAACAACCATATCTTGATATCGCATAAAACAACCATAAGTTGATATTTTGGTGAAAAGGATATTCCAACCTTCATAGTTTAGTAAGAA | 0.198 ± 0.12 | -0.201 ± 0.34
AATGTTGTTGAAACAACCATAAAGTGATAACAACGAATCAATTAAAATCATAGGCTTAATCGAAAAACAACCATATCTTGATATCGCATAAAACAACCATAAGTTGATATTTTGGTGAAACGAGTATTTCAGCAAAACTACTGCAGTAAGAA | -0.44 ± 0.53 | 0.0434 ± 0.29
AATGTTGTTGAAACAACCATAAAGTGATAACAACGAATCAATTAAAATCATAGGCTTAATCGAAAAACAACCATATCTTGATATCGCATAAAACAACCATAAGTTGATATTTTTGTGAATCGAGTATTTCAGCAAAACTACTGCAGTAAGAA | -0.327 ± 0.31 | -0.424 ± 0.24
AATGTTGTTGATGACCAACGCCCTGTCGCGGGCCGCCGGCGGGCGCCGACTACCAGGCCAACACCCCACCAACGCGCGGTCGCGAGACACCCCACCAACGCCTGGTCGCGGGGGTGTCCGATCTGATTTCAGCAAAACTACTGCAGTAAGAA | < -10 | –
AATGTTGTTGATGACCAACGCCTGGTCGCGGGGATAATTATTTATAATCAGCAACTTAACCACAAAACAACCATATATTGATATCTCACAAAAACCAACGCCCTGTCGCGGGCTGTGAATCGAGTATTTCAGCAAAACTACTGCAGTAAGAA | < -10 | –
AATGTTGTTGATGCAACCAGCCCTTGATATTTAATAATTATTTATAATCAGCAACTTAACCACAAAACAACCAGCGCGTGATATCTCACAAAACAACCAGCCTGTGATATTTTTGTGAATCGAGTATTTCAGCAAAACTACTGCAGTAAGAA | < -10 | –
AATGTTGTTGATGCAACCATAAAGTGATATTTAATAATTATTCAACCATATATTGATATCTCACAAAACAACCATAAGTTGATATTTTTGTGAATCGAGTATTTCAGCAAAACTACTGCAGTAAGAAAGTTACTTCGTGGTATGGGAGGATC | -5.27 ± 0.11 | –
AATGTTGTTGATGCAACCATAAAGTGATATTTAATAATTATTTATAATCAGCACAACCATATATTGATATCTCACAAAACAACCATAAGTTGATATTTTTGTGAATCGAGTATTTCAGCAAAACTACTGCAGTAAGAAAGTTACTTCGTGGT | -4.94 ± 0.63 | –
AATGTTGTTGATGCAACCATAAAGTGATATTTAATAATTATTTCAACCATAAAGTGATATTTAACTTCAACCATATATTGATATCTCACAAAACAACCATAAGTTGATATTTTTGTGAATCGAGTATTTCAGCAAAACTACTGCAGTAAGAA | – | -6.43 ± 0.89
AATGTTGTTGATGCAACCATAAAGTGATATTTAATAATTATTTCAACCATATATTGATATCTCATAATCAGCAACTTAACCACAAAAACAAAACAACCATAAGTTGATATTTTTGTGAATCGAGTATTTCAGCAAAACTACTGCAGTAAGAA | – | -5.79 ± 0.8
AATGTTGTTGATGCAACCATAAAGTGATATTTAATAATTCAACCATAAAGTGATATTTAACTTAACCCAACCATATATTGATATCTCACAAAACAACCATAAGTTGATATTTTTGTGAATCGAGTATTTCAGCAAAACTACTGCAGTAAGAA | – | -4.15 ± 0.95
AATGTTGTTGATGCAACCATAAAGTGATATTTAATAATTCGGGCGCCGACTACCAGGCCAACACCCCACCAACGCGCGGTCGCGAGACACCCCACCAACGCCTGGTCGCGGGGGTGTCCGATCTGATTTCAGCAAAACTACTGCAGTAAGAA | – | -7.09 ± 1
AATGTTGTTGATGCAACCATAAAGTGATATTTATACCGTTCGTATACGATACATTATACGAAGTTATCAACCATATATTGATATCTCACAAAACAACCATAAGTTGATATTTTTGTGAATCGAGTATTTCAGCAAAACTACTGCAGTAAGAA | – | -4.08 ± 1.3
AATGTTGTTGATGCAACCATAAAGTGATATTTATATTAATAAATATTAGTCGTTGAATTGGTGTTTTCAACCATATATTGATATCTCACAAAACAACCATAAGTTGATATTTTTGTGAATCGAGTATTTCAGCAAAACTACTGCAGTAAGAA | – | -3.31 ± 1.4
AATGTTGTTGATGCAACCATAAAGTGATATTTATATTCTAAATGTTGATTAATTTGAATCATCATCTCAACCATATATTGATATCTCACAAAACAACCATAAGTTGATATTTTTGTGAATCGAGTATTTCAGCAAAACTACTGCAGTAAGAA | – | -5.04 ± 1
AATGTTGTTGATGCAACCATAAAGTGATATTTATTGACAGCTAGCTCAGTCCTAGGTATAATGCTAGCAACCATATATTGATATCTCACAAAACAACCATAAGTTGATATTTTTGTGAATCGAGTATTTCAGCAAAACTACTGCAGTAAGAA | – | -8.14 ± 0.72

Sequence | relative integration efficiency (log2) [1] | relative integration efficiency (log2) [2]
AATGTTGTTGATGCAACCATAAAGTGATATTTATTGACGGCTAGCTCAGTCCTAGGTATAGTGCTAGCAACCATATATTGATATCTCACAAAACAACCATAAGTTGATATTTTTGTGAATCGAGTATTTCAGCAAAACTACTGCAGTAAGAA | – | -6.66 ± 0.33
AATGTTGTTGATGCAACCATAAAGTGATATTTGCTAGCATTATACCTAGGACTGAGCTAGCTGTCAACAACCATATATTGATATCTCACAAAACAACCATAAGTTGATATTTTTGTGAATCGAGTATTTCAGCAAAACTACTGCAGTAAGAA | < -10 | –
AATGTTGTTGATGCAACCATAAAGTGCGCGGGCATAATTATTTATAATCAGCAACTTAACCACAAAACAACCATATATTGCGCGAGAACAAAACAACCATAAGTTGCGCGGGGTGTGAATCGAGTATTTCAGCAAAACTACTGCAGTAAGAA | – | -7.87 ± 2.2
AATGTTGTTGATGCAACCATAAAGTGCGCGGGCCGCCGGCGGGCGCCGACTACCAGGCCAACACCCCACCAACGCGCGGTCGCGAGACACCCCACCAACGCCTGGTCGCGGGGGTGTCCGATCTGATTTCAGCAAAACTACTGCAGTAAGAA | < -10 | –
AATGTTGTTGATGCAACCATAAAGTTCGCGGGCCGCCGGCGGGCGCCGACTACCAGGCCAACACCCCACCAACGCGCGGTCGCGAGACACCCCACCAACGCCTGGTCGCGGGGGTGTCCGATCTGATTTCAGCAAAACTACTGCAGTAAGAA | < -10 | –
AATGTTGTTGATGCAACCATAAATGTCGCGGGCCGCCGGCGGGCGCCGACTACCAGGCCAACACCCCACCAACGCGCGGTCGCGAGACACCCCACCAACGCCTGGTCGCGGGGGTGTCCGATCTGATTTCAGCAAAACTACTGCAGTAAGAA | < -10 | –
AATGTTGTTGATGCAACCATACCTGTATATTTAATAATTATTTATAATCAGCAACTTAACCACAAAACAACCATAGCGGTATATCTCACAAAACAACCATACTGGTATATTTTTGTGAATCGAGTATTTCAGCAAAACTACTGCAGTAAGAA | < -10 | –
AATGTTGTTGATGCACAACGCCCTGTCGCGGGCCGCCGGCGGGCGCCGACTACCAGGCCAACACCCCACCAACGCGCGGTCGCGAGACACCCCACCAACGCCTGGTCGCGGGGGTGTCCGATCTGATTTCAGCAAAACTACTGCAGTAAGAA | < -10 | –
AATGTTGTTGATGCCCAACGCCCTGTCGCGGGCCGCCGGCGGGCGCCGACTACCAGGCCAACACCCCACCAACGCGCGGTCGCGAGACACCCCACCAACGCCTGGTCGCGGGGGTGTCCGATCTGATTTCAGCAAAACTACTGCAGTAAGAA | < -10 | –
AATGTTGTTGATGGTTGGTATTTCACTATAAATATAATTATTTATAATCAGCAACTTAACCACAAAACAACCATATATTGATATCTCACAAAACAACCATAAGTTGATATTTTTGTGAATCGAGTATTTCAGCAAAACTACTGCAGTAAGAA | – | -6.55 ± 1.7
AATGTTGTTGATGGTTGGTATTTCACTATAAATATAATTATTTATAATCAGCAACTTAACCACAAAACAACCATATATTGATATCTCACAAAAGTTGGTATTCAACTATAAAATGTGAATCGAGTATTTCAGCAAAACTACTGCAGTAAGAA | – | -8.45 ± 0.29
AATGTTGTTGATGGTTGGTATTTCACTATAAATATAATTATTTATAATCAGCAACTTAACCACAAAAGTTGGTATATAACTATAGAGACAAAACAACCATAAGTTGATATTTTTGTGAATCGAGTATTTCAGCAAAACTACTGCAGTAAGAA | – | -8.28 ± 1.3
AATGTTGTTGATGTAATTATCATTTTATGGTTGATAATTATTTATAATCAGCAACTTAACCACAAAACAACCATAAAATGATAATTAACAAAACAACCATAAAATGATAATTATGTGAATCGAGTATTTCAGCAAAACTACTGCAGTAAGAA | < -10 | –
AATGTTGTTGATGTAATTATCATTTTATGGTTGATAATTATTTATAATCAGCAACTTAACCACAAAATAATTATCATTTTATGGTTGACAAAACAACCATAAAATGATAATTATGTGAATCGAGTATTTCAGCAAAACTACTGCAGTAAGAA | < -10 | –
AATGTTGTTGATGTGTTGACAACCATAAAGTGATATTTAATAATTATTTATAATCAGCAACTTAACCACAAAACAACCATATATTGATATCTCACAAAACAACCATAAGTTGATATTTTTGTGAATCGAGTATTTCAGCAAAACTACTGCAG | – | -2.23 ± 0.63
AATGTTGTTGATGTGTTGATCAACCATAAAGTGATATTTAATAATTATTTATAATCAGCAACTTAACCACAAAACAACCATATATTGATATCTCACAAAACAACCATAAGTTGATATTTTTGTGAATCGAGTATTTCAGCAAAACTACTGCA | – | -4.39 ± 0.52
